Experimental findings from publication PMC2943896, “Additional Serine/Threonine Phosphorylation Reduces Binding Affinity but Preserves Interface Topography of Substrate Proteins to the c-Cbl TKB Domain” (PLoS ONE, 2010) are described below.

Where no end group is shown, it is not given here. [ ]: non-standard residue; d: D form. pY = N[C@@H](Cc1ccc(OP(=O)(O)O)cc1)C(=O)O; pT = C[C@@H](OP(=O)(O)O)[C@H](N)C(=O)O

Usually Kd stands for the concentration at which binding is half-saturated.

The target of the experiment is T1, c-Cbl TKB domain (UniProt P22681 25-351).
T1 construct: these are not the construct limits; source: cloning, expression and purification as described previously [14]; purified
T1 sequence: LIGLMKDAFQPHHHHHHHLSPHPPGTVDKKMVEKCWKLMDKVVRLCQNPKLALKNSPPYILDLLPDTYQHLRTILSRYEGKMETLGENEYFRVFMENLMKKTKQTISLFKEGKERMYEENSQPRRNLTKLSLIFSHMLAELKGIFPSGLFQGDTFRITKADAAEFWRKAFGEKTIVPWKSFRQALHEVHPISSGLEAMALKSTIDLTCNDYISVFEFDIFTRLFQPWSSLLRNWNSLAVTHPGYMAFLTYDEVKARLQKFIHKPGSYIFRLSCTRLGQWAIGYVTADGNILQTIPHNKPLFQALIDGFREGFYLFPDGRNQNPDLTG
As to conditions: both partners purified.

B1: pTyr55/pThr56 Spry2 peptide (peptide)
peptide: IRNTNE[pY][pT]EGPT
notes: Sprouty2 (Spry2), human; also called ppSpry2; pYpT-Spry2; source: synthetic peptide, bought: GL Biochem
In turn, B1 showed a Kd of 3830 nM.

B2: Tyr55 phosphorylated Spry2 peptide (peptide)
peptide: IRNTNE[pY]TEGPT
notes: also called pSpry2; pSprouty2
B2: the Kd was 310 nM.
